From article PMC2804263 (Biochemistry, 2009) come the findings set out here.

The series deals with the molecule itself. Briefly: crystal structure.

B1: Bovine S100B (Ca^2+-S100B in the SBiX crystal structures) (natural protein)
chain: MSELEKAVVALIDVFHQYSGREGDKHKLKKSELKELINNELSHFLEEIKEQEVVDKVMETLDSDGDGECDFQEFMAFVAMITTACHEFFEHE
Take B1: the binding result was “binds”.
